These results are taken from the supplement of paper PMC7125110.

± gives the standard error. Fewer inactive variants are shown than the library holds. Where only a bound is given, the exact number is not on record here.

Sequences and labels used below:
B1: glmS ribozyme (parent)
chain: AUAAAAGCGCCAGAACUACAGAAAUGUAGUUGACGAGGAGGAGGUUUAUCGAAUUUUCGGCGGAUGCCUCCAAA

In the first data set the parent is B1. As to the kind of experiment: self-cleavage kobs at 2500 uM GlcN6P; higher = faster cleavage; RNA array. The conditions noted are these: with glucosamine-6-phosphate. The method, boiled down: (§1)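 The measurements used barcoded ribozyme variants on sequenced MiSeq chips, transcribed in situ by E. coli RNA polymerase and tracked at 37 °C with a hybridised Cy3 probe. Glucosamine-6-phosphate, 40 μM to 10 mM in HEPES/KCl/Mg(OAc)2 buffer, was flowed in while tiles were imaged over ~14 h. Baseline-normalised signals, also normalised to non-cleaving reference variants, gave per-tile medians that were fit to one- or two-exponential decays for kobs. kcat and KM resulted from weighted Michaelis–Menten fits across concentrations.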
For the variant AUAAAAGCGCCAGAACUACAGAAAUGUAGUUGACGAUGAGGCGGUUUAUCGAAUGUUCGGCGGAUGCCUCCAAA [G37U A42C U55G], the “self-cleavage kobs at 2500 uM GlcN6P” value was less than 1e-05 s⁻¹.

For AUAAAAGCGCCAGAACUACAGAAAUGUAAUUGACGAGGUUGAGGUUUAUCGAAUUUUCGGCGGAUGCCUCCAAA [G29A A39U G40U], the “self-cleavage kobs at 2500 uM GlcN6P” value turned out to be 0.000177 ± 3.8e-05 s⁻¹. Still for that read-out and setting: with AUAAAAGCGCCAGAAUUACAGAAAUGUAGUUGACGAUGAGAAGGUUUAUCGAAUUUUCGGCGGAUGCCUCCAAA [C16U G37U G41A] the figure was less than 1e-05 s⁻¹; with AUAAAAGCGUCAGGACUACAGAAAUGUAGUUGACGAGGAGGAGUUUUAUCGAAUUUUCGGCGGAUGCCUCCAAA [C10U A14G G44U], less than 1e-05 s⁻¹; with AUAAAAGCGCCAGAACUACAGAAAUGUAGUUGAAGAGGAGGAGGUUUAUCCAAGUUUCGGCGGAUGCCUCCAAA [C34A G51C U54G], less than 1e-05 s⁻¹. Regarding AUAAAAGCGCCAGAACUACAGAAAUGUACUUGACGAGGAGGAGGUUUAUUGAAUUUUCGGCGGAUGCAUCCAAA [G29C C50U C68A], the “self-cleavage kobs at 2500 uM GlcN6P” value was determined as 7.07e-05 ± 2.7e-05 s⁻¹. Same read-out and setting: with AUAAAAGCGCCAGAACUACAGAAAUGUAGUGGACGAGCAGGAGAUUUAUCGAAUUUUCGGCGGAUGCCUCCAAA [U31G G38C G44A] the figure was less than 1e-05 s⁻¹; with AUAAAAGCGCCAGAACUACAGAAAUGUAGUUGACGAGGAGGAGGCUUAUCGAAUUUUCGACGCAUGCCUCCAAA [U45C G60A G63C], less than 1e-05 s⁻¹; with AUAAAAGCGCCCGAACUACAGAAAUGUAGUUGACGGGGAGGAGGUUUAUCGAAUUUUCGGCGGAUGCCUCUAAA [A12C A36G C71U], less than 1e-05 s⁻¹. The same measure, in the same setting: with AUAAAAGCGCCAUAACUACAGAAAUGUAGUUGACGAGGCGGAGGUUUAUCGAAUUGUCGGCGGAUGCCUCCAAA [G13U A39C U56G] the figure was 3.76e-05 ± 1.4e-05 s⁻¹; with AUAAAAGUGCCAGAACUACAGAAAUGUAGUUGACGAGGGGGAGGUUUAUCGAAUUUUCGCCGGAUGCCUCCAAA [C8U A39G G60C], less than 1e-05 s⁻¹; with AUAAAAGCGCCAGACCUACAGAAAUGUAGUCGACGAGGAGGAGGAUUAUCGAAUUUUCUGCGGAAGCCUCCAAA [A15C U31C U45A G59U U65A], less than 1e-05 s⁻¹. With AUAAAAUCGCCAGAACUACAGAAAUGUAGUCGACGUGGCGGGGGUUUAUCGAAUUUUCUGCGGAUUCCUCCAAA [G7U U31C A36U A39C A42G G59U G66U], the “self-cleavage kobs at 2500 uM GlcN6P” value was less than 1e-05 s⁻¹.

As to AUAAAAGCGCCAGUAGUACAGAAAUGUAGUUGACGAGGAGGAGGUUUAUCGAAUUUUCGGCGGAAGCCUCCAAA [A14U C16G U65A], the “self-cleavage kobs at 2500 uM GlcN6P” value was found to be 5.56e-05 ± 1.9e-05 s⁻¹.

On to AUAAAAGCGCCAGAACUACAGAAAUGUAGUUUACGAGGAGGAGGUCUAUCGAAUUUUCGGCGGAUGCAUCUAAA [G32U U46C C68A C71U], for which the “self-cleavage kobs at 2500 uM GlcN6P” value was less than 1e-05 s⁻¹.

For the variant AUAAAAGCGCCAGAACUACAGAAAUGUACUUGACGAGGAAGUGGUUUAUCGAAUUUUCGUUGGAUGCCUCCAAA [G29C G40A A42U G60U C61U], the “self-cleavage kobs at 2500 uM GlcN6P” value is less than 1e-05 s⁻¹.

On to AUAAAAGCGCCAGAACUACAGAAAUGUAGUUGACGAGGAGGAGGUGUAUCGAAUUUUCGGCGGAUACCUACAAA [U46G G66A C70A], for which the “self-cleavage kobs at 2500 uM GlcN6P” value turned out to be 0.00045 ± 0.00016 s⁻¹. Same read-out and setting: with AUAAAAGGGCCAGGACUACAGAAAUGUAGUUGACGAGGAGGAGCUUUAUCGAAAUUUCGGCGGAUGCCUCUAAA [C8G A14G G44C U54A C71U] the figure was less than 1e-05 s⁻¹. On the same count and under the same terms, the value for AUAAAAGCGCCAGAACUACAGAAAUGUACUUCACGAGGAGGAGGUUUAUCGAAUUUUCGGCGGAUGCCUCCAAA [G29C G32C] was 2.89e-05 ± 9.4e-06 s⁻¹; that for AUAAAAGCGCCAGAACUACAGAAAUGUAGUUGAUGAGUAGGAGGUUUAUGGAAUUUUCGGCGGAUGCCUCCAAA [C34U G38U C50G] was 0.000215 ± 5.7e-05 s⁻¹; that for AUAAAAGAUCCAGACCUACAGAAAUGUAGUAAACGAGGAGGAGGUUUAUCGAAUUUUCGGCGGAUGCCUACAAA [C8A G9U A15C U31A G32A C70A] was less than 1e-05 s⁻¹.

For the variant AUAAAAGUGCCAGAACUACAGAAAUGUAGUUGACGAGGAGGACGUUUAUCGUAUUUUCGGCGGAUGCCUUCAAA [C8U G43C A52U C70U], the “self-cleavage kobs at 2500 uM GlcN6P” value was less than 1e-05 s⁻¹. The same measure, in the same setting: the value for AUAAAAGCGCCAGAACUACAGAAAUGUAGUUGACGAGGAGCACGUUUAUCGAAUAUGCGGCGGAUGCCGCCAAA [G41C G43C U55A U57G U69G] was less than 1e-05 s⁻¹; that for AUAAAAGCGCCAGAAAUACAGAAAUGUAGUCGACGAGGAGGAGGUUUAUCGAAUUUUCGGCGGAUGCCUACAAA [C16A U31C C70A] was less than 1e-05 s⁻¹. Still for that read-out and setting: with AUAAAAGCGCCCGAAUUACAGAAAUGUAGUUGACGAGGUGGAGGUUUAUCGAAUUUUCGGCGGAUGCCUCCAAA [A12C C16U A39U] the figure was 0.00306 ± 0.00084 s⁻¹; with AUAAAAGCGCCAGAACUACAGAAAUGUAGGUGCCGAGGAGGAGGUUUAUCGAAUUUUCGGCGGAUUCCUCCAAA [U30G A33C G66U], less than 1e-05 s⁻¹. As for AUAAAAGCGCGAAAACUACAGAAAUGUAGUUGACGAGGAGGAGAUUUAUCGAAUUUUCGGCGGAUGCCUCCAAA [C11G G13A G44A], the “self-cleavage kobs at 2500 uM GlcN6P” value is less than 1e-05 s⁻¹.

Regarding AUAAAAGCGCCAGGACUACAGAAAUGUAGUUGACGAGGAGGAGGUUUAUCGAAUUUUUGGCGGAUUGCUCCAAA [A14G C58U G66U C67G], the “self-cleavage kobs at 2500 uM GlcN6P” value amounted to 7.46e-05 ± 3.2e-05 s⁻¹. AUAAAACCGCCAGAAUUACAGAAAUGUAUUUGACGAGGAGGAGGUUUAUCGAAUUUUCGGUGGAUGCCUCCAAA [G7C C16U G29U C61U]: the “self-cleavage kobs at 2500 uM GlcN6P” value is less than 1e-05 s⁻¹.

On to AUAAAAGCGCCAGCACUACAGAAAUGUAGUUGACGAGGAGGAGGCUUAUCGAAUUUUCGGCGGAUGCCUCCAAA [A14C U45C], for which the “self-cleavage kobs at 2500 uM GlcN6P” value worked out at 0.000604 ± 0.00025 s⁻¹.

In the case of AUAAAAGCGCCAGAACUACAGAAAUGUAGUGGACGAGGAGGAGGUUUAGCGAAUUUUCCGCGGAUGCCUCCAAA [U31G U49G G59C], the “self-cleavage kobs at 2500 uM GlcN6P” value is less than 1e-05 s⁻¹. For AUAAAAGCGCCGGAACUACAGAAAUGUAGUAGACGAGGAGGAGGAUUAUCGAAUUUUCGGCGGAUGCCUCCAAA [A12G U31A U45A], the “self-cleavage kobs at 2500 uM GlcN6P” value amounted to 0.000216 ± 6.4e-05 s⁻¹. Consider AUAAAAGCGCCAGAGUUACAGAAAUGUAGUAGACGAGGCGGAGGUUUAUCGAAUUUUCGGCGGAUGCCUCCAAA [A15G C16U U31A A39C], for which the “self-cleavage kobs at 2500 uM GlcN6P” value was 0.000142 ± 2.8e-05 s⁻¹.

In a further data set the parent is B1. As to the kind of experiment: self-cleavage kobs at 10000 uM GlcN6P; higher = faster cleavage; RNA array. The conditions noted are these: with glucosamine-6-phosphate. Put shortly:
as §1
On to AUAAAAGCGCCAGAAUUACAGAAAUGUAGUUGACGAUGAGAAGGUUUAUCGAAUUUUCGGCGGAUGCCUCCAAA [C16U G37U G41A], for which the “self-cleavage kobs at 10000 uM GlcN6P” value was less than 1e-05 s⁻¹.

With AUAAAAGCGCCAGACCUACAGAAAUGUAGUCGACGAGGAGGAGGAUUAUCGAAUUUUCUGCGGAAGCCUCCAAA [A15C U31C U45A G59U U65A], the “self-cleavage kobs at 10000 uM GlcN6P” value was less than 1e-05 s⁻¹. As to AUAAAAGCGCCAGAACUACAGAAAUGUACUUCACGAGGAGGAGGUUUAUCGAAUUUUCGGCGGAUGCCUCCAAA [G29C G32C], the “self-cleavage kobs at 10000 uM GlcN6P” value is 9.51e-05 ± 1.2e-05 s⁻¹.

Take AUAAAAGCGCCAGCACUACAGAAAUGUAGUUGACGAGGAGGAGGCUUAUCGAAUUUUCGGCGGAUGCCUCCAAA [A14C U45C]: the “self-cleavage kobs at 10000 uM GlcN6P” value is 0.000368 ± 6.5e-05 s⁻¹.
